# Assay results as given in patent publication US20220324969A1 (MYTHIC THERAPEUTICS, published 2022).
# Target: CD33 (Sino Biological, Cat #12238-H08H) (UniProt P20138 18-259)
# Experiment: BLI, IgG captured on anti-human Fc sensor, 50 nM CD33, pH 7.4 vs pH 5.4
# CD33 (Sino Biological, Cat #12238-H08H), sequence (P20138 18-259 limits assumed): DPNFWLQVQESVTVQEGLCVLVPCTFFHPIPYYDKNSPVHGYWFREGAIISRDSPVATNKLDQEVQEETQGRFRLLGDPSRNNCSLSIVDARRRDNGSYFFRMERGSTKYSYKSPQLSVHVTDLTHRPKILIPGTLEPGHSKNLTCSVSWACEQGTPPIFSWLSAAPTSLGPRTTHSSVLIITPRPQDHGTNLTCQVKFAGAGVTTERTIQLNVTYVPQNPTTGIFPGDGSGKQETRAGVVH
row,Binder,binding result
1,"MYT1220 (antibody, V domains shown, IgG; IMGN779 VH variant #8 (Y33H)) VH: QVQLQQPGAEVVKPGASVKMSCKASGYTFTSYHIHWIKQTPGQGLEWVGVIYPGNDDISYNQKFQGKATLTADKSSTTAYMQLSSLTSEDSAVYYCAREVRLRYFDVWGQGTTVTVSS VL: EIVLTQSPGSLAVSPGERVTMSCKSSQSVFFSSSQKNYLAWYQQIPGQSPRLLIYWASTRESGVPDRFTGSGSGTDFTLTISSVQPEDLAIYYCHQYLSSRTFGQGTKLEIK",binds
2,"MYT1238 (antibody, V domains shown, IgG; IMGN779 VH variant #26 (Q65H)) VH: QVQLQQPGAEVVKPGASVKMSCKASGYTFTSYYIHWIKQTPGQGLEWVGVIYPGNDDISYNQKFHGKATLTADKSSTTAYMQLSSLTSEDSAVYYCAREVRLRYFDVWGQGTTVTVSS VL: EIVLTQSPGSLAVSPGERVTMSCKSSQSVFFSSSQKNYLAWYQQIPGQSPRLLIYWASTRESGVPDRFTGSGSGTDFTLTISSVQPEDLAIYYCHQYLSSRTFGQGTKLEIK",binds
3,"MYT1228 (antibody, V domains shown, IgG; IMGN779 VH variant #16 (N55H)) VH: QVQLQQPGAEVVKPGASVKMSCKASGYTFTSYYIHWIKQTPGQGLEWVGVIYPGHDDISYNQKFQGKATLTADKSSTTAYMQLSSLTSEDSAVYYCAREVRLRYFDVWGQGTTVTVSS VL: EIVLTQSPGSLAVSPGERVTMSCKSSQSVFFSSSQKNYLAWYQQIPGQSPRLLIYWASTRESGVPDRFTGSGSGTDFTLTISSVQPEDLAIYYCHQYLSSRTFGQGTKLEIK",binds
4,"MYT1230 (antibody, V domains shown, IgG; IMGN779 VH variant #18 (D57H)) VH: QVQLQQPGAEVVKPGASVKMSCKASGYTFTSYYIHWIKQTPGQGLEWVGVIYPGNDHISYNQKFQGKATLTADKSSTTAYMQLSSLTSEDSAVYYCAREVRLRYFDVWGQGTTVTVSS VL: EIVLTQSPGSLAVSPGERVTMSCKSSQSVFFSSSQKNYLAWYQQIPGQSPRLLIYWASTRESGVPDRFTGSGSGTDFTLTISSVQPEDLAIYYCHQYLSSRTFGQGTKLEIK",binds
5,"MYT1231 (antibody, V domains shown, IgG; IMGN779 VH variant #19 (I58H)) VH: QVQLQQPGAEVVKPGASVKMSCKASGYTFTSYYIHWIKQTPGQGLEWVGVIYPGNDDHSYNQKFQGKATLTADKSSTTAYMQLSSLTSEDSAVYYCAREVRLRYFDVWGQGTTVTVSS VL: EIVLTQSPGSLAVSPGERVTMSCKSSQSVFFSSSQKNYLAWYQQIPGQSPRLLIYWASTRESGVPDRFTGSGSGTDFTLTISSVQPEDLAIYYCHQYLSSRTFGQGTKLEIK",binds
6,"MYT1237 (antibody, V domains shown, IgG; IMGN779 VH variant #25 (F64H)) VH: QVQLQQPGAEVVKPGASVKMSCKASGYTFTSYYIHWIKQTPGQGLEWVGVIYPGNDDISYNQKHQGKATLTADKSSTTAYMQLSSLTSEDSAVYYCAREVRLRYFDVWGQGTTVTVSS VL: EIVLTQSPGSLAVSPGERVTMSCKSSQSVFFSSSQKNYLAWYQQIPGQSPRLLIYWASTRESGVPDRFTGSGSGTDFTLTISSVQPEDLAIYYCHQYLSSRTFGQGTKLEIK",binds
7,"MYT1236 (antibody, V domains shown, IgG; IMGN779 VH variant #24 (K63H)) VH: QVQLQQPGAEVVKPGASVKMSCKASGYTFTSYYIHWIKQTPGQGLEWVGVIYPGNDDISYNQHFQGKATLTADKSSTTAYMQLSSLTSEDSAVYYCAREVRLRYFDVWGQGTTVTVSS VL: EIVLTQSPGSLAVSPGERVTMSCKSSQSVFFSSSQKNYLAWYQQIPGQSPRLLIYWASTRESGVPDRFTGSGSGTDFTLTISSVQPEDLAIYYCHQYLSSRTFGQGTKLEIK",binds
8,"MYT1221 (antibody, V domains shown, IgG; IMGN779 VH variant #9 (I34H)) VH: QVQLQQPGAEVVKPGASVKMSCKASGYTFTSYYHHWIKQTPGQGLEWVGVIYPGNDDISYNQKFQGKATLTADKSSTTAYMQLSSLTSEDSAVYYCAREVRLRYFDVWGQGTTVTVSS VL: EIVLTQSPGSLAVSPGERVTMSCKSSQSVFFSSSQKNYLAWYQQIPGQSPRLLIYWASTRESGVPDRFTGSGSGTDFTLTISSVQPEDLAIYYCHQYLSSRTFGQGTKLEIK",binds
9,"MYT1226 (antibody, V domains shown, IgG; IMGN779 VH variant #14 (P53H)) VH: QVQLQQPGAEVVKPGASVKMSCKASGYTFTSYYIHWIKQTPGQGLEWVGVIYHGNDDISYNQKFQGKATLTADKSSTTAYMQLSSLTSEDSAVYYCAREVRLRYFDVWGQGTTVTVSS VL: EIVLTQSPGSLAVSPGERVTMSCKSSQSVFFSSSQKNYLAWYQQIPGQSPRLLIYWASTRESGVPDRFTGSGSGTDFTLTISSVQPEDLAIYYCHQYLSSRTFGQGTKLEIK",binds
10,"MYT1232 (antibody, V domains shown, IgG; IMGN779 VH variant #20 (S59H)) VH: QVQLQQPGAEVVKPGASVKMSCKASGYTFTSYYIHWIKQTPGQGLEWVGVIYPGNDDIHYNQKFQGKATLTADKSSTTAYMQLSSLTSEDSAVYYCAREVRLRYFDVWGQGTTVTVSS VL: EIVLTQSPGSLAVSPGERVTMSCKSSQSVFFSSSQKNYLAWYQQIPGQSPRLLIYWASTRESGVPDRFTGSGSGTDFTLTISSVQPEDLAIYYCHQYLSSRTFGQGTKLEIK",binds
11,"MYT1224 (antibody, V domains shown, IgG; IMGN779 VH variant #12 (I51H)) VH: QVQLQQPGAEVVKPGASVKMSCKASGYTFTSYYIHWIKQTPGQGLEWVGVHYPGNDDISYNQKFQGKATLTADKSSTTAYMQLSSLTSEDSAVYYCAREVRLRYFDVWGQGTTVTVSS VL: EIVLTQSPGSLAVSPGERVTMSCKSSQSVFFSSSQKNYLAWYQQIPGQSPRLLIYWASTRESGVPDRFTGSGSGTDFTLTISSVQPEDLAIYYCHQYLSSRTFGQGTKLEIK",binds
12,"MYT1241 (antibody, V domains shown, IgG; IMGN779 VH variant #29 (R98H)) VH: QVQLQQPGAEVVKPGASVKMSCKASGYTFTSYYIHWIKQTPGQGLEWVGVIYPGNDDISYNQKFQGKATLTADKSSTTAYMQLSSLTSEDSAVYYCAHEVRLRYFDVWGQGTTVTVSS VL: EIVLTQSPGSLAVSPGERVTMSCKSSQSVFFSSSQKNYLAWYQQIPGQSPRLLIYWASTRESGVPDRFTGSGSGTDFTLTISSVQPEDLAIYYCHQYLSSRTFGQGTKLEIK",binds

# The next lines start with the values.
row,binding result,Binder
1,binds,"MYT1233 (antibody, V domains shown, IgG; IMGN779 VH variant #21 (Y60H)) VH: QVQLQQPGAEVVKPGASVKMSCKASGYTFTSYYIHWIKQTPGQGLEWVGVIYPGNDDISHNQKFQGKATLTADKSSTTAYMQLSSLTSEDSAVYYCAREVRLRYFDVWGQGTTVTVSS VL: EIVLTQSPGSLAVSPGERVTMSCKSSQSVFFSSSQKNYLAWYQQIPGQSPRLLIYWASTRESGVPDRFTGSGSGTDFTLTISSVQPEDLAIYYCHQYLSSRTFGQGTKLEIK"
2,binds,"MYT1239 (antibody, V domains shown, IgG; IMGN779 VH variant #27 (G66H)) VH: QVQLQQPGAEVVKPGASVKMSCKASGYTFTSYYIHWIKQTPGQGLEWVGVIYPGNDDISYNQKFQHKATLTADKSSTTAYMQLSSLTSEDSAVYYCAREVRLRYFDVWGQGTTVTVSS VL: EIVLTQSPGSLAVSPGERVTMSCKSSQSVFFSSSQKNYLAWYQQIPGQSPRLLIYWASTRESGVPDRFTGSGSGTDFTLTISSVQPEDLAIYYCHQYLSSRTFGQGTKLEIK"
3,binds,"MYT1222 (antibody, V domains shown, IgG; IMGN779 VH variant #10 (H35A)) VH: QVQLQQPGAEVVKPGASVKMSCKASGYTFTSYYIAWIKQTPGQGLEWVGVIYPGNDDISYNQKFQGKATLTADKSSTTAYMQLSSLTSEDSAVYYCAREVRLRYFDVWGQGTTVTVSS VL: EIVLTQSPGSLAVSPGERVTMSCKSSQSVFFSSSQKNYLAWYQQIPGQSPRLLIYWASTRESGVPDRFTGSGSGTDFTLTISSVQPEDLAIYYCHQYLSSRTFGQGTKLEIK"
4,binds,"MYT1225 (antibody, V domains shown, IgG; IMGN779 VH variant #13 (Y52H)) VH: QVQLQQPGAEVVKPGASVKMSCKASGYTFTSYYIHWIKQTPGQGLEWVGVIHPGNDDISYNQKFQGKATLTADKSSTTAYMQLSSLTSEDSAVYYCAREVRLRYFDVWGQGTTVTVSS VL: EIVLTQSPGSLAVSPGERVTMSCKSSQSVFFSSSQKNYLAWYQQIPGQSPRLLIYWASTRESGVPDRFTGSGSGTDFTLTISSVQPEDLAIYYCHQYLSSRTFGQGTKLEIK"
5,binds,"MYT1227 (antibody, V domains shown, IgG; IMGN779 VH variant #15 (G54H)) VH: QVQLQQPGAEVVKPGASVKMSCKASGYTFTSYYIHWIKQTPGQGLEWVGVIYPHNDDISYNQKFQGKATLTADKSSTTAYMQLSSLTSEDSAVYYCAREVRLRYFDVWGQGTTVTVSS VL: EIVLTQSPGSLAVSPGERVTMSCKSSQSVFFSSSQKNYLAWYQQIPGQSPRLLIYWASTRESGVPDRFTGSGSGTDFTLTISSVQPEDLAIYYCHQYLSSRTFGQGTKLEIK"
6,binds,"MYT1229 (antibody, V domains shown, IgG; IMGN779 VH variant #17 (D56H)) VH: QVQLQQPGAEVVKPGASVKMSCKASGYTFTSYYIHWIKQTPGQGLEWVGVIYPGNHDISYNQKFQGKATLTADKSSTTAYMQLSSLTSEDSAVYYCAREVRLRYFDVWGQGTTVTVSS VL: EIVLTQSPGSLAVSPGERVTMSCKSSQSVFFSSSQKNYLAWYQQIPGQSPRLLIYWASTRESGVPDRFTGSGSGTDFTLTISSVQPEDLAIYYCHQYLSSRTFGQGTKLEIK"
7,binds,"MYT1223 (antibody, V domains shown, IgG; IMGN779 VH variant #11 (V50H)) VH: QVQLQQPGAEVVKPGASVKMSCKASGYTFTSYYIHWIKQTPGQGLEWVGHIYPGNDDISYNQKFQGKATLTADKSSTTAYMQLSSLTSEDSAVYYCAREVRLRYFDVWGQGTTVTVSS VL: EIVLTQSPGSLAVSPGERVTMSCKSSQSVFFSSSQKNYLAWYQQIPGQSPRLLIYWASTRESGVPDRFTGSGSGTDFTLTISSVQPEDLAIYYCHQYLSSRTFGQGTKLEIK"
8,binds,"MYT1235 (antibody, V domains shown, IgG; IMGN779 VH variant #23 (Q62H)) VH: QVQLQQPGAEVVKPGASVKMSCKASGYTFTSYYIHWIKQTPGQGLEWVGVIYPGNDDISYNHKFQGKATLTADKSSTTAYMQLSSLTSEDSAVYYCAREVRLRYFDVWGQGTTVTVSS VL: EIVLTQSPGSLAVSPGERVTMSCKSSQSVFFSSSQKNYLAWYQQIPGQSPRLLIYWASTRESGVPDRFTGSGSGTDFTLTISSVQPEDLAIYYCHQYLSSRTFGQGTKLEIK"
9,binds,"MYT1234 (antibody, V domains shown, IgG; IMGN779 VH variant #22 (N61H)) VH: QVQLQQPGAEVVKPGASVKMSCKASGYTFTSYYIHWIKQTPGQGLEWVGVIYPGNDDISYHQKFQGKATLTADKSSTTAYMQLSSLTSEDSAVYYCAREVRLRYFDVWGQGTTVTVSS VL: EIVLTQSPGSLAVSPGERVTMSCKSSQSVFFSSSQKNYLAWYQQIPGQSPRLLIYWASTRESGVPDRFTGSGSGTDFTLTISSVQPEDLAIYYCHQYLSSRTFGQGTKLEIK"
